The values that follow come from US20210246166A1 (Bayer, published 2021).

Numbered stars: 1 amine (or outer) side, 2 acyl side, 3 side chain; on linkers, the order of the positions; unused ones are H or OH. Bridge positions count the residues as written; N and C are the ends. Square brackets hold non-standard residues; d marks the D form. Ends that are not written are not given here. * marks the point of attachment. (N,N-diMe)A = (N,N-diMe)A, L-N,N-dimethylalanine, C[C@@H](C(=O)*)N(C)C; Leu(4-F) = 4-fluoroleucine, CC(C)(F)C[C@H](N[*:1])C(=O)[*:2]; Pro(4-spirocPr) = O=C(O)[C@@H]1CC2(CC2)CN1; Oic = O=C(O)[C@@H]1C[C@@H]2CCCC[C@@H]2N1; tBuAla = CC(C)(C)C[C@H](N)C(=O)O; Chg = N[C@H](C(=O)O)C1CCCCC1; Pen = CC(C)(S)[C@H](N)C(=O)O; NMePro = CN1CCC[C@H]1C(=O)*; NMeC = CN[C@@H](CS)C(=O)O; NMeA = CN[C@@H](C)C(=O)O; Ahx = NCCCCCC(=O)O; Sar = CNCC(=O)O

The chains are these.
T1: Recombinant human MASP1 enzyme (fragment corresponding to amino acids 297-699, C-terminal His Tag) (human, UniProt P48740 297-699)
T1 sequence: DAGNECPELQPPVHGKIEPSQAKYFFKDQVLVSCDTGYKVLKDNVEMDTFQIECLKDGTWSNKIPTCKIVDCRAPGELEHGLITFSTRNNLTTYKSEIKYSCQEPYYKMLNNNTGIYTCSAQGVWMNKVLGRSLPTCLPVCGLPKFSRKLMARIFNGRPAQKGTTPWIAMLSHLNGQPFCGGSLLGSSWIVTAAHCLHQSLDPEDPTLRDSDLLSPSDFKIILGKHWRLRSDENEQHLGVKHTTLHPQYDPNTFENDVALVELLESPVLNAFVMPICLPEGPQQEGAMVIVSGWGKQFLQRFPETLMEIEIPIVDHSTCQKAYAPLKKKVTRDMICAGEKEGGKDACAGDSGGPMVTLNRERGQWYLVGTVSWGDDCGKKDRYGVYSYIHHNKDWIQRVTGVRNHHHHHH

B1: AIC+SRS-((4-Fluoro)L)-PPIC+IPD-NH2 (peptide)
peptide: AICSRS[Leu(4-F)]PPICIPD-NH2
modifications: disulfide 3-11; N-terminus assumed
SMILES: CC[C@H](C)[C@H](NC(=O)[C@H](C)N)C(=O)N[C@H]1CSSC[C@@H](C(=O)N[C@H](C(=O)N2CCC[C@H]2C(=O)N[C@@H](CC(=O)O)C(N)=O)[C@@H](C)CC)NC(=O)[C@H]([C@@H](C)CC)NC(=O)[C@@H]2CCCN2C(=O)[C@@H]2CCCN2C(=O)[C@H](CC(C)(C)F)NC(=O)[C@H](CO)NC(=O)[C@H](CCCNC(=N)N)NC(=O)[C@H](CO)NC1=O
B2: kIC+SRS-((tBu)A)-PPI-(Pen)+I-NH2 (peptide)
peptide: [dK]ICSRS[tBuAla]PPI[Pen]I-NH2
modifications: disulfide 3-11; N-terminus assumed
SMILES: CC[C@H](C)[C@H](NC(=O)[C@H]1NC(=O)[C@H]([C@@H](C)CC)NC(=O)[C@@H]2CCCN2C(=O)[C@@H]2CCCN2C(=O)[C@H](CC(C)(C)C)NC(=O)[C@H](CO)NC(=O)[C@H](CCCNC(=N)N)NC(=O)[C@H](CO)NC(=O)[C@@H](NC(=O)[C@@H](NC(=O)[C@H](N)CCCCN)[C@@H](C)CC)CSSC1(C)C)C(N)=O
B3: AIC+SRSLPP-(Chg)-C+IPD-NH2 (peptide)
peptide: AICSRSLPP[Chg]CIPD-NH2
modifications: disulfide 3-11; N-terminus assumed
SMILES: CC[C@H](C)[C@H](NC(=O)[C@H](C)N)C(=O)N[C@H]1CSSC[C@@H](C(=O)N[C@H](C(=O)N2CCC[C@H]2C(=O)N[C@@H](CC(=O)O)C(N)=O)[C@@H](C)CC)NC(=O)[C@H](C2CCCCC2)NC(=O)[C@@H]2CCCN2C(=O)[C@@H]2CCCN2C(=O)[C@H](CC(C)C)NC(=O)[C@H](CO)NC(=O)[C@H](CCCNC(=N)N)NC(=O)[C@H](CO)NC1=O
B4: ((N-Me)G)-IC+SRSLP-(Oic)-I-(Pen)+I-NH2 (peptide)
peptide: [Sar]ICSRSLP[Oic]I[Pen]I-NH2
modifications: disulfide 3-11; N-terminus assumed
SMILES: CC[C@H](C)[C@H](NC(=O)[C@H]1NC(=O)[C@H]([C@@H](C)CC)NC(=O)[C@@H]2C[C@@H]3CCCC[C@@H]3N2C(=O)[C@@H]2CCCN2C(=O)[C@H](CC(C)C)NC(=O)[C@H](CO)NC(=O)[C@H](CCCNC(=N)N)NC(=O)[C@H](CO)NC(=O)[C@@H](NC(=O)[C@@H](NC(=O)CNC)[C@@H](C)CC)CSSC1(C)C)C(N)=O
B5: (Ahx)-IC+SRS-((tBu)A)-PPI-(Pen)+IP-NH2 (peptide)
peptide: [Ahx]ICSRS[tBuAla]PPI[Pen]IP-NH2
modifications: disulfide 3-11; N-terminus assumed
SMILES: CC[C@H](C)[C@H](NC(=O)CCCCCN)C(=O)N[C@H]1CSSC(C)(C)[C@@H](C(=O)N[C@H](C(=O)N2CCC[C@H]2C(N)=O)[C@@H](C)CC)NC(=O)[C@H]([C@@H](C)CC)NC(=O)[C@@H]2CCCN2C(=O)[C@@H]2CCCN2C(=O)[C@H](CC(C)(C)C)NC(=O)[C@H](CO)NC(=O)[C@H](CCCNC(=N)N)NC(=O)[C@H](CO)NC1=O
B6: IC+SRS-((tBu)A)-PP-I-((N-Me)C)+IPD-NH2 (peptide)
peptide: ICSRS[tBuAla]PPI[NMeC]IPD-NH2
modifications: disulfide 2-10; N-terminus assumed
SMILES: CC[C@H](C)[C@H](N)C(=O)N[C@H]1CSSC[C@@H](C(=O)N[C@H](C(=O)N2CCC[C@H]2C(=O)N[C@@H](CC(=O)O)C(N)=O)[C@@H](C)CC)N(C)C(=O)[C@H]([C@@H](C)CC)NC(=O)[C@@H]2CCCN2C(=O)[C@@H]2CCCN2C(=O)[C@H](CC(C)(C)C)NC(=O)[C@H](CO)NC(=O)[C@H](CCCNC(=N)N)NC(=O)[C@H](CO)NC1=O
B7: AIC+SRSLPP-(Chg)-C+I-NH2 (peptide)
peptide: AICSRSLPP[Chg]CI-NH2
modifications: disulfide 3-11; N-terminus assumed
SMILES: CC[C@H](C)[C@H](NC(=O)[C@@H]1CSSC[C@H](NC(=O)[C@@H](NC(=O)[C@H](C)N)[C@@H](C)CC)C(=O)N[C@@H](CO)C(=O)N[C@@H](CCCNC(=N)N)C(=O)N[C@@H](CO)C(=O)N[C@@H](CC(C)C)C(=O)N2CCC[C@H]2C(=O)N2CCC[C@H]2C(=O)N[C@@H](C2CCCCC2)C(=O)N1)C(N)=O
B8: ((N-Me)G)-IC+SRS-((tBu)A)-PPIC+IPD-OH (peptide)
peptide: [Sar]ICSRS[tBuAla]PPICIPD-OH
modifications: disulfide 3-11; N-terminus assumed
SMILES: CC[C@H](C)[C@H](NC(=O)CNC)C(=O)N[C@H]1CSSC[C@@H](C(=O)N[C@H](C(=O)N2CCC[C@H]2C(=O)N[C@@H](CC(=O)O)C(=O)O)[C@@H](C)CC)NC(=O)[C@H]([C@@H](C)CC)NC(=O)[C@@H]2CCCN2C(=O)[C@@H]2CCCN2C(=O)[C@H](CC(C)(C)C)NC(=O)[C@H](CO)NC(=O)[C@H](CCCNC(=N)N)NC(=O)[C@H](CO)NC1=O
B9: ((N-Me)P)-IC+SRS-((tBu)A)-PPIC+IPD-NH2 (peptide)
peptide: [NMePro]ICSRS[tBuAla]PPICIPD-NH2
modifications: disulfide 3-11
SMILES: CC[C@H](C)[C@H](NC(=O)[C@@H]1CCCN1C)C(=O)N[C@H]1CSSC[C@@H](C(=O)N[C@H](C(=O)N2CCC[C@H]2C(=O)N[C@@H](CC(=O)O)C(N)=O)[C@@H](C)CC)NC(=O)[C@H]([C@@H](C)CC)NC(=O)[C@@H]2CCCN2C(=O)[C@@H]2CCCN2C(=O)[C@H](CC(C)(C)C)NC(=O)[C@H](CO)NC(=O)[C@H](CCCNC(=N)N)NC(=O)[C@H](CO)NC1=O
B10: AIC+SRSNPPI-(Pen)+IPD-NH2 (peptide)
peptide: AICSRSNPPI[Pen]IPD-NH2
modifications: disulfide 3-11; N-terminus assumed
SMILES: CC[C@H](C)[C@H](NC(=O)[C@H](C)N)C(=O)N[C@H]1CSSC(C)(C)[C@@H](C(=O)N[C@H](C(=O)N2CCC[C@H]2C(=O)N[C@@H](CC(=O)O)C(N)=O)[C@@H](C)CC)NC(=O)[C@H]([C@@H](C)CC)NC(=O)[C@@H]2CCCN2C(=O)[C@@H]2CCCN2C(=O)[C@H](CC(N)=O)NC(=O)[C@H](CO)NC(=O)[C@H](CCCNC(=N)N)NC(=O)[C@H](CO)NC1=O
B11: ((N-Me)A)-IC+SRS-((tBu)A)-PPIC+IPD-NH2 (peptide)
peptide: [NMeA]ICSRS[tBuAla]PPICIPD-NH2
modifications: disulfide 3-11; N-terminus assumed
SMILES: CC[C@H](C)[C@H](NC(=O)[C@H](C)NC)C(=O)N[C@H]1CSSC[C@@H](C(=O)N[C@H](C(=O)N2CCC[C@H]2C(=O)N[C@@H](CC(=O)O)C(N)=O)[C@@H](C)CC)NC(=O)[C@H]([C@@H](C)CC)NC(=O)[C@@H]2CCCN2C(=O)[C@@H]2CCCN2C(=O)[C@H](CC(C)(C)C)NC(=O)[C@H](CO)NC(=O)[C@H](CCCNC(=N)N)NC(=O)[C@H](CO)NC1=O
B12: AIC+SRSLP-((6S)-5-Azaspiro[2.4]heptane-6-carboxylic acid)-IC+IPD-NH2 (peptide)
peptide: AICSRSLP[Pro(4-spirocPr)]ICIPD-NH2
modifications: disulfide 3-11; N-terminus assumed
SMILES: CC[C@H](C)[C@H](NC(=O)[C@H](C)N)C(=O)N[C@H]1CSSC[C@@H](C(=O)N[C@H](C(=O)N2CCC[C@H]2C(=O)N[C@@H](CC(=O)O)C(N)=O)[C@@H](C)CC)NC(=O)[C@H]([C@@H](C)CC)NC(=O)[C@@H]2CC3(CC3)CN2C(=O)[C@@H]2CCCN2C(=O)[C@H](CC(C)C)NC(=O)[C@H](CO)NC(=O)[C@H](CCCNC(=N)N)NC(=O)[C@H](CO)NC1=O
B13: ((N,N-diMe)A)-IC+SRS-((tBu)A)-PPIC+IPD-NH2 (peptide)
peptide: [(N,N-diMe)A]ICSRS[tBuAla]PPICIPD-NH2
modifications: disulfide 3-11; N-terminus assumed
SMILES: CC[C@H](C)[C@H](NC(=O)[C@H](C)N(C)C)C(=O)N[C@H]1CSSC[C@@H](C(=O)N[C@H](C(=O)N2CCC[C@H]2C(=O)N[C@@H](CC(=O)O)C(N)=O)[C@@H](C)CC)NC(=O)[C@H]([C@@H](C)CC)NC(=O)[C@@H]2CCCN2C(=O)[C@@H]2CCCN2C(=O)[C@H](CC(C)(C)C)NC(=O)[C@H](CO)NC(=O)[C@H](CCCNC(=N)N)NC(=O)[C@H](CO)NC1=O

Recombinant human MASP2 enzyme (fragment corresponding to amino acids 297-686, C-terminal His Tag), sequence (O00187 other isoform, or with tags, fused parts or gaps limits assumed): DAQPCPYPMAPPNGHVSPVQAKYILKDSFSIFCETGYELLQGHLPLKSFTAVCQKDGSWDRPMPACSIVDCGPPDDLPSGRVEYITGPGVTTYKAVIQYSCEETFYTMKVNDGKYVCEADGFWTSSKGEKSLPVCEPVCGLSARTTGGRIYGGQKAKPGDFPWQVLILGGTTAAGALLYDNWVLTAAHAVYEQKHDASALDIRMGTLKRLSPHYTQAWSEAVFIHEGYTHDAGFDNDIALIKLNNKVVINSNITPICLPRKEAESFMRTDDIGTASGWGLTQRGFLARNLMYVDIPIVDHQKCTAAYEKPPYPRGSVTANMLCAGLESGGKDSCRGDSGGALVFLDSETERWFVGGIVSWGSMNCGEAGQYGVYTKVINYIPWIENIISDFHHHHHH

One experiment has as its target Recombinant human MASP2 enzyme (fragment corresponding to amino acids 297-686, C-terminal His Tag) (human, UniProt O00187 297-686). Put plainly: cell-based or functional assay.
On to B1, for which the “human MASP2 IC50” value came out at 300 nM.

For the molecule B2, the “human MASP2 IC50” value worked out at 110 nM.

As to B3, the “human MASP2 IC50” value came out at 73.5 nM.

For B4, the “human MASP2 IC50” value amounted to 295 nM.

Regarding AICSRSL[(4aR,6aR,9S,11aS)‑11‑Oxo‑2,3,4,4a,6a,7,8,9,11,11a‑decahydro‑1H‑pyrido(3,2-e)pyrrolo(1,2-a)azepine‑9‑carboxylic acid]ICIPD-NH2 (disulfide 3-10), the “human MASP2 IC50” value worked out at 72.5 nM.

On to B5, for which the “human MASP2 IC50” value amounted to 16 nM.

Turning to B6, the “human MASP2 IC50” value worked out at 620 nM.

In the case of B7, the “human MASP2 IC50” value turned out to be 92 nM.

For the molecule B8, the “human MASP2 IC50” value came out at 2600 nM.

B9: the “human MASP2 IC50” value is 260 nM.

As for B10, the “human MASP2 IC50” value amounted to 480 nM.

Take B11: the “human MASP2 IC50” value was found to be 440 nM.

On to B12, for which the “human MASP2 IC50” value was determined as 33 nM.

Take B13: the “human MASP2 IC50” value was found to be 120 nM.

Regarding [Sar]ICSRSLP[Oic]I[Pen]IP-NH2 (disulfide 3-11; also: acetate salt) [((N-Me)G)-IC+SRSLP-(Oic)-I-(Pen)+IP-NH2 (Acetate)], the “human MASP2 IC50” value was 37 nM.

For a further experiment, the target named is T1, Recombinant human MASP1 enzyme …. In words: cell-based or functional assay.
As for B1, the “human MASP1 IC50” value stood at 8.9 nM.

In the case of B2, the “human MASP1 IC50” value turned out to be 10 nM.

Turning to B3, the “human MASP1 IC50” value came to 9.8 nM.

For the molecule B4, the “human MASP1 IC50” value is 8.45 nM.

As to AICSRSL[(4aR,6aR,9S,11aS)‑11‑Oxo‑2,3,4,4a,6a,7,8,9,11,11a‑decahydro‑1H‑pyrido(3,2-e)pyrrolo(1,2-a)azepine‑9‑carboxylic acid]ICIPD-NH2 (disulfide 3-10), the “human MASP1 IC50” value amounted to 8.2 nM.

For B5, the “human MASP1 IC50” value amounted to 9.9 nM.

With B6, the “human MASP1 IC50” value stood at 10 nM.

B7: the “human MASP1 IC50” value worked out at 8.9 nM.

Take B8: the “human MASP1 IC50” value worked out at 8.8 nM.

As to B9, the “human MASP1 IC50” value is 9.3 nM.

In the case of B10, the “human MASP1 IC50” value amounted to 9.4 nM.

Regarding B11, the “human MASP1 IC50” value worked out at 9.5 nM.

Take B12: the “human MASP1 IC50” value worked out at 8.5 nM.

For the molecule B13, the “human MASP1 IC50” value was determined as 8.3 nM.

[Sar]ICSRSLP[Oic]I[Pen]IP-NH2 (disulfide 3-11; also: acetate salt) [((N-Me)G)-IC+SRSLP-(Oic)-I-(Pen)+IP-NH2 (Acetate)]: the “human MASP1 IC50” value came to 1.4 nM.
